Data set [1] concerns human annulus fibrosus (AF) cells. Description: PDA nanoparticle / free bevacizumab dose effect on human annulus fibrosus (AF) cell viability. The settings on record: doses higher than 1 mg/mL. Type of data set: cell-based.
In data set [2] the test system is human cartilage endplate (CEP) cells. Description: PDA nanoparticle / free bevacizumab dose effect on human cartilage endplate (CEP) cell viability. The format is cell-based.

On to Bevacizumab, for which the cell viability result in data set [1] is recorded as “approximately 30%”; in data set [2] (1 mg/mL dosing), 30%; in data set [2] (up to 0.5 mg/mL), greater than 80%.

As a reminder, the cell viability is the share of living cells, or the viability signal relative to a control. A high value points to less harm to the cells.

For the origin of these results see patent publication US20260199558A1, “INJECTABLE COMPOSITIONS FOR TREATING JOINT CONDITIONS” (Ohio State Innovation Foundation, priority 2022, published 2026).
